According to the nanobody polyreactivity screen of Harvey et al. (2022):

Assay: yeast display, Sf9 membrane polyspecificity reagent, FACS + sequencing; frameworks hold sequencing errors
Summary of the method: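 Sorting gates, low and high (top ~1%), were placed on anti-HA fluorescence to track expression and on streptavidin fluorescence to track reagent binding. A clone's polyreactivity label is taken from the gate it came out of. The reagent was 10% biotinylated, detergent-solubilized Sf9 membrane, applied for 1 hour at 4 °C to galactose-induced yeast display cells.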

Sequence | polyreactivity (PSR sort gate)
QVQLVESGGGLVQAGGSLRLSCAASGRTFVYYAMGWYRQAPGKERELVAAISSGGSTYYADSVKGRFTISRDNAKNTVYLQMNSLKPEDTAVYYCNALRYTHYLLTYGYWGQGTQVTVSS | high polyreactivity
QVQLVESGGGLVQAGGSLRLSCAASGRTFVYYAMGWYRQAPGKERELVAAITSGGGTNYADSVKGRFTISRDNAKNSVYLQMNSLKPEDTAVYYCNADPRWYHFEYGYWGQGTQVTVSS | high polyreactivity
QVQLVESGGGLVQAGGSLRLSCAASGRTFVYYDMGWYRQAPGKERELVAAISRRGDTTYYADSVKGRFTISRDNAKNTVYLQMNSLKPVDTAVYYCNARSIKYGSWGQGTQVTVSS | high polyreactivity
QVQLVESGGGLVQAGGSLRLSCAASGRTFWAYALGWYRQGPGKERELVAAITTSGGSTNYADSVKGRFTISRDNAKNTVYVQLHSLKPEDTAVYYCNADPTYPVVNGVGYWGQGTQVTVSS | low polyreactivity
QVQLVESGGGLVQAGGSLRLSCAASGRTFWDYAMGWYRQAPGKERELVAAITGGITNYADSVKGRFTISRDNAKNTVYLQMNSLKPEDTAVYYCAVYYRRWFSRYDYWGQGTQVTVSS | low polyreactivity
QVQLVESGGGLVQAGGSLRLSCAASGRTFWDYGMGWYRQAPGKERELVATISGNGGDTYYADSVKGRFTISRDNAKNTVYLQMNSLKPEDTAVYYCAAAWPSTGLLYVLGYSGYGYWGQGTQVTVSS | low polyreactivity
QVQLVESGGGLVQAGGSLRLSCAASGRTFWFNAMGWYRQAPGKERELVASITLSGGSTYYADSVKGRFTISRDNAKITVYLQMNSLKPEDTAVYYCAADQTVHISSYDYWGQGTQVTVSS | low polyreactivity
QVQLVESGGGLVQAGGSLRLSCAASGRTFWFYDMGWYRQAPGKEREFVASITSSGGSTYYADSVKGRFTISRDIAKNTVYLQMNSLKPEDTAVYYCAASFYWTTRYSREYDYWGQGTQVTVSS | high polyreactivity
QVQLVESGGGLVQAGGSLRLSCAASGRTFWGYAMGWYRQAPGKERELVAAISCRGGRTYYADSVKGRFTISRDNAKNTVYLQMNSLKPEDTAVYYCNRAYLLRPDLYDYWGQGTQVTVSS | low polyreactivity
QVQLVESGGGLVQAGGSLRLSCAASGRTFWGYAMGWYRQAPGKERELVAAISWSGTSTYYADSVKGRFTISRDNAKNTVYLQMNRLKPEDSAVYYCARAVNDWSRKYNYWGQGTLVTVSS | high polyreactivity
QVQLVESGGGLVQAGGSLRLSCAASGRTFWKYAMGWSRQAPGKERELVAAITDDDSTDYADSVKGRFTISRDNAKNTVYLQMTSLKPEYTAVYYCNADSSRYYRALEYWGQGTQVTVSS | low polyreactivity
QVQLVESGGGLVQAGGSLRLSCAASGRTFWKYAMGWYRQAPGKERELVAAISSSGGNTYYADSVKGRFTISRDNAKNSVYLQMNSLKPEDTAVYYCAARLPRGAYYYWGQGTQVTVSS | high polyreactivity
QVQLVESGGGLVQAGGSLRLSCAASGRTFWNNAMGWYRQAPGKERELVAAISVRGGSTYYADSVKGRFTISRDNAKNTVYLQMNSLKPEDTAVYYCATRSRGWIAPPWQGSDGYYYWGQGTQVTVSS | low polyreactivity
QVQLVESGGGLVQAGGSLRLSCAASGRTFWNYAMGWSRQAPGKERELVAVIRFSDGSTYYADSVKGRFTISRDNAKNTVYLQMNSLKPEDTAVYYCAAKGPRRWGSGFDYWGQGTQVTVSS | low polyreactivity
QVQLVESGGGLVQAGGSLRLSCAASGRTFWNYAMGWYRQAPGKERELVAVIRFSDGSTYYADSVKGRFTISRDNAKNTGYLQMISLKPEDTAVFYCAAKGPRRWGSGFDYWGQGTQVTVSS | low polyreactivity
QVQLVESGGGLVQAGGSLRLSCAASGRTFWPYAMGWYRQAPGKERELLAAITSDGSTTYADSVKGRFTISRDNAKNTVYLQMNSLTPEDTAVYYCAAYGYYYYQTIPMDYWGQGTQVTVSS | low polyreactivity
QVQLVESGGGLVQAGGSLRLSCAASGRTFWQYSMGWYRQAPGKERELVAAITSSGGSTYYADSVKGRFTISRDNAKNTVYLQMNSLKPEDTAVYYCAADTRYYRYYYWGQGTQVTVSS | high polyreactivity
QVQLVESGGGLVQAGGSLRLSCAASGRTFWRYAMGWYRQAPGKERELVAAISVSGGTTYYADSVKGRFTISRDNAKNTVYLQMNSLKPEDTAVYYCAARYGSIYSILYYGFDYWGQGTQVTVSS | high polyreactivity
QVQLVESGGGLVQAGGSLRLSCAASGRTFWRYAMGWYRQAPGKERELVAGITSRGGSTYYADSVKGRFTISRDNAKNTVYLQMNSLKPEDTAVYYCNRRSQVHSHSKHDYWGQGTQVTVSS | low polyreactivity
QVQLVESGGGLVQAGGSLRLSCAASGRTFWRYAMGWYRQAPGKERELVATISSGGSTNYADSVKGRFTISRDNAKNTVYLQMNSLKPEDTAVYYCNAEYSYYDLLAYDYWGQGTQVTVSS | low polyreactivity
QVQLVESGGGLVQAGGSLRLSCAASGRTFWSNAMGWSRQAPGKERELVAAITWSGGSTSYADSVKGRFTISRDNAKNTVYLQMNSLKTEDTAVYYCAAGKGVELAKLDYWGQGTQVTVSS | low polyreactivity
QVQLVESGGGLVQAGGSLRLSCAASGRTFWSYAMGWYRQAPGKERELVATITGRGGSTYYADSVKGRFTISRDNAKNTVYLQMNSLKPEDTAVYYCARSQYSRSPSRMGYWGQGTQVTVSS | high polyreactivity

Sequence | polyreactivity (PSR sort gate)
QVQLVESGGGLVQAGGSLRLSCAASGRTFWTNAMGWYRQAPGKERELVAAITKSGGRTYYADSVKGRFTISRDNAKNTVYLQMNRLKPEDTAVYYCAAYSQGEGGYWGQGTQVTVSS | high polyreactivity
QVQLVESGGGLVQAGGSLRLSCAASGRTFWTNAMGWYRQAPGKERELVASINWSGGGTYYADSVKGRFTISRDNAKNTVYLQMNSLKPEDTAVYYCNVYSNPEKEYEYWGQGTQVTVSS | low polyreactivity
QVQLVESGGGLVQAGGSLRLSCAASGRTFWVNAMGWYRQAPGKERELVAAITSSVSSTYYADSVKGRFTISRDNAKNTVYLQMNSLKPEDTAVYYCAAGVGRGMYYWGQGTQVTVSS | low polyreactivity
QVQLVESGGGLVQAGGSLRLSCAASGRTFWVYAMGWYRQAPGKERELVAAINNGGSTTYADSVKGRFTISRDNAKNTVYLQMNSLKPEDTAVYYCAADSVKQVRYGNVGHDYWGQGTQVTVSS | low polyreactivity
QVQLVESGGGLVQAGGSLRLSCAASGRTFWVYAMGWYRQAPGKERELVAAIRRGGITNYADSVKGRFTISRDNAKNTVYLQMNSLKPEDTAVYYCATDNYGYLTRYYYWGQGTQVTVSS | low polyreactivity
QVQLVESGGGLVQAGGSLRLSCAASGRTFWVYAMGWYRQAPGKERELVAAISLSGVSTYYADSVKGRFTISRDNAKNTVYLQMNSLKPDDTAVYYCAAPLIYTPLKYHYWGQGTQVTVSS | low polyreactivity
QVQLVESGGGLVQAGGSLRLSCAASGRTFWVYAMGWYRQAPGKERELVAGISSGASTYYADSVKGRFTISRDNAKNTVYLQMNSLKPEDTAVYYCAAPYYRLTGWSRYDYWGQGTQVTVSS | high polyreactivity
QVQLVESGGGLVQAGGSLRLSCAASGRTFWWYAMGWYRQAPGKEREFVAAISQRGTSTYYADSVKGRFTISRDNAKNTVYLQMNSLKPEDTAVYYCAAPLYRRWEVTYDYWGQGTQVTVSS | high polyreactivity
QVQLVESGGGLVQAGGSLRLSCAASGRTFWYNAMGWYRQAPGKEREFVAAITSSGGSTYYADSVKGRFTISRDNAKHTVFLQMNSLKPEDTAVYYCNKRPGPYKWPPRHDYWGQGTQVTVSS | low polyreactivity
QVQLVESGGGLVQAGGSLRLSCAASGRTFWYNAMGWYRQAPGKERELVAAISSTGGRTYYADSVKGRFTISRDNAKNTVYLQMNSLKPEDTAVYYCAKYPSKSYVPGDYWGQGTQVTVSS | low polyreactivity
QVQLVESGGGLVQAGGSLRLSCAASGRTFWYYAMGWYRHAPGKERELVAAITSGGSTNYADSVKGRFTISRDNAKNTVSLQMNSLKPEDTAVYYCAKLFRQRRYWDWYDYWGQGTQVTVSS | high polyreactivity
QVQLVESGGGLVQAGGSLRLSCAASGRTFWYYAMGWYRQAPGKAREWVATISYRGGSTYYADSVKGRFTISRDNAKNTVNLQMNSLKPEDTAVYYCAAKQWWGGRPKVDYWGQGTQVTVSS | high polyreactivity
QVQLVESGGGLVQAGGSLRLSCAASGRTFWYYDKGWYRQAPGKERELVAAITNGDRTYYADSVKGRFTISRDNAKNTVYLQMNSLKPEDTAVYYCAKETWGTRHDYWGQGTQVTVSS | high polyreactivity
QVQLVESGGGLVQAGGSLRLSCAASGRTFWYYGMGWYRQAPGKERELVAAISRSGGRTSYADSVKGRFTISRDNAKNTVYLQMNSLKPEDTAVYYCATDGYYRYGYWGQGTQVTVSS | high polyreactivity
QVQLVESGGGLVQAGGSLRLSCAASGRTFWYYTMGWYRQAPGKERELVAAISSGGRTNYADSVKGRFTISRDNAKNTVYLQMNSLKPEYTAVYYCATSRYYKYVERDYWGQGTQVTVSS | high polyreactivity
QVQLVESGGGLVQAGGSLRLSCAASGRTFWYYTMGWYRQAPGKERELVAGITGTGGSTYYADSVKGRFTISRDNAKNTVYLQMNSLKPEDTAVYYCNALRRSQRYWDPYGYDYWGQGTQVTVSS | high polyreactivity
QVQLVESGGGLVQAGGSLRLSCAASGRTFYANAMGWYRQAPGKERELVASITTSGGTYYADSVKGRFTISRDNAKNTVYLQMNSLKPEDTAVYYCAAEVYRSIGYDYWGQGTQVTVSS | low polyreactivity
QVQLVESGGGLVQAGGSLRLSCAASGRTFYANTMGWYRQAPGKERELVAAITVRGGTTFYADSVKGRFTISRDNAKNTVYLQMNSLKPEDTAVYYCAAYGYRYSHEYYYWGQGTQVTVSS | high polyreactivity
QVQLVESGGGLVQAGGSLRLSCAASGRTFYAYAMGWYRQAPGKERELVAAITSGASTYYADSVKGRFTISRDNAKNTVYLQMFSLKPEDTAVYYCNAEYYEGYIGVPGSFWPYEYWGQGTQVTVSS | low polyreactivity
QVQLVESGGGLVQAGGSLRLSCAASGRTFYAYDMGWYRQAPGKERELVAAINSGDRTNYADSVKGRFTISRDNAKNTDYLQMNSLKPEDTAVYYCAADWYTPQGVGLDYWGQGTQVTVSS | low polyreactivity
QVQLVESGGGLVQAGGSLRLSCAASGRTFYAYTMGWYRTAPGKERELVAAITRRGGSTYYADSVKGRFTISRDNAKNTVYLQMNSLKPEDTAVYYCAASYSHRNYGLTYDYWGQGTQVTVSS | high polyreactivity
